Source: publication PMC2141627

Target: laminin 5 (α3β3γ2) purified from SCC25 cell culture medium (human (endogenous in SCC25)) (UniProt Q16787)
Experiment: rotary shadowing electron microscopy

NC-1 domain of type VII collagen purified from human amnion (from UniProt Q02388 17-2944) (domain or fragment)
stoichiometry N: 1
